{"source": "paper PMC6160459", "about": "“Identification of Peptide Mimotope Ligands for Natalizumab” (Scientific Reports, 2018)", "molecules": {"B1": {"name": "natalizumab: humanized recombinant IgG4 mAb that targets the α4 chain of α4β1 integrin and a4β7 integrin (antibody, V domains shown)", "VH": "QVQLVQSGAEVKKPGASVKVSCKASGFNIKDTYIHWVRQAPGQRLEWMGRIDPANGYTKYDPKFQGRVTITADTSASTAYMELSSLRSEDTAVYYCAREGYYGNYGVYAMDYWGQGTLVTVSS", "VL": "DIQMTQSPSSLSASVGDRVTITCKTSQDINKYMAWYQQTPGKAPRLLIHYTSALQPGIPSRFSGSGSGRDYTFTISSLQPEDIATYYCLQYDNLWTFGQGTKVEIK"}}, "key": {"MS patients [1]": {"system": "MS patients", "conditions": "AFFIRM study; cited from earlier work", "description": "Multiple sclerosis (MS) is a leading cause of neurologic disability that affects approximately 400,000 people in the US and 2.5 million worldwide. Natalizumab (marketed as Tysabri) is the top selling biologic drug indicated for MS and has been used to treat 177,800 patients worldwide as of November 2017[2]. […] Natalizumab is a humanized recombinant IgG4 mAb that targets the α4 chain of α4β1 integrin (also known as very late a ..."}, "[2]": {"assay": "Ntz-01 peptide ELISA of heat exposed natalizumab samples", "format": "binding", "conditions": "60 °C for 30 m, 1 h or 2 h; particularly for the GSH treated samples; 0.4% serum", "method": "Wells of a NeutrAvidin-coated 96-well plate or 8-well strips (Thermo Fisher) were coated with 100 µl of biotinylated peptide at 7.5 µg/ml in molecular grade H2O (GE Healthcare Life Sciences, Logan, UT) for 1 h. Wells were washed five times with TBST. Wells were then blocked with 200 µl of 5% normal goat serum diluted from 10% normal goat serum (Thermo Fisher) in TBS for 1 h. Wells were washed five times with TBST. Antibody was spiked into 2.5% BSA in TBST (2.5% BSA/TBST) or into pooled defibrinated human AB serum (serum; Gemini, Woodland CA) diluted in 2.5% BSA/TBST. The final dilution of serum was 0.4% unless otherwise noted. Wells were incubated with 100 µl of antibody-spiked samples for 1 h and then washed five times with TBST. Bound natalizumab was detected with mouse anti-human IgG4 horse radish peroxidase (anti-IgG4-HRP; Abcam, Cambridge, MA) diluted 1:2000-1:5000 in TBST. Wells were incubated with 100 µl of diluted anti-IgG4-HRP for 30 m and then washed nine times with TBST. Turbo TMB substrate (Thermo Fisher) was added to the wells and allowed to develop for 12–15 m shielded from light. The reaction was stopped with 1 M H2SO4 (Thermo Fisher). Optical density (OD) was read at 450 nm on a Multiskan FC plate reader (Thermo Fisher) and data were analyzed with GraphPad Prism v5 or v7 software (Graphpad Software Inc, La Jolla CA).\nNatalizumab was spiked into neat serum. […]"}, "CD49d+ JeKo-1 cells": {"system": "CD49d+ JeKo-1 cells", "assay": "CD49d+ cell based binding assay of heat exposed natalizumab (flow cytometry)", "conditions": "60 °C for 30 m, 1 h or 2 h; both GSH and non-GSH treated samples", "method": "Natalizumab-spiked samples in serum were diluted 25-fold in 5% FBS/DPBS/0.05% NaN3. CD49d+ JeKo-1 cells were suspended in 5% FBS/DPBS/0.05% NaN3, and 25 µl of suspension (10^5 cells) were added to 25 µl of diluted sample and incubated for 20 m on ice. Washes, secondary incubation, collection, and analysis proceeded as in the CD49d+ Cell Based Peptide Competition Assay protocol.\n(§1) Natalizumab was spiked into neat serum. The samples were split in half and 100 mM Glutathione reduced (GSH, Sigma-Aldrich, St. Louis MO) in H2O was added to one set to produce a final concentration of 3 mM GSH. Samples were then incubated overnight at 37 °C to induce arm exchange of IgG4 molecules. For ELISA assays, samples were subsequently diluted 250-fold in 2.5% BSA/TBST to produce a final serum concentration of 0.4%.\n(§2) Samples containing GSH treated or non-GSH treated natalizumab in serum were heated at 60 °C for 30 m, 1 h, or 2 h. Control samples were held at 4 °C. For ELISA assays, samples were subsequently diluted 250-fold in 2.5% BSA/TBST to produce a final serum concentration of 0.4%."}, "[3]": {"system": "natalizumab neutralizing anti-Idiotype (anti-Id) Fab fragment", "assay": "Anti-Id ELISA of heat exposed natalizumab samples", "format": "binding", "conditions": "60 °C for 30 m, 1 h or 2 h; GSH or non-GSH treated samples; 0.4% serum", "method": "Wells of a Costar 96-well high binding plate were coated with 100 µl of natalizumab neutralizing anti-Idiotype (anti-Id) Fab fragment (Bio-Rad, Hercules CA) in phosphate-buffered saline (PBS; Corning Life Sciences) at 1 µg/ml overnight at 4 °C. The remining protocol proceeded as in peptide ELISA Protocol-1, with the following exceptions. 1) PBS/PBST was used in place of TBS/TBST (except for washes), 2) goat anti-human IgG HRP (Jackson Immunoresearch, West Grove PA) diluted 1:5000 was used as the secondary conjugate, and 3) TMB substrate was allowed to develop for 8–10 m.\nas §1, §2"}, "[4]": {"conditions": "standard dosing, 300 mg by IV infusion every 4 weeks; cited from earlier work", "method": "The standard dosing regimen for natalizumab is 300 mg by IV infusion every 4 weeks. […] It has been postulated that high serum concentrations may increase the risk of PML[10],[11]. […] Conversely, low drug concentrations have been associated with a lack of natalizumab efficacy. Multiple enzyme-linked immunosorbent assays (ELISAs) to detect levels of circulating natal ..."}, "MS patients [5]": {"system": "MS patients", "conditions": "cited from earlier work", "description": "The immunosuppressive activity of natalizumab has been associated with opportunistic infection by John Cunningham (JC) virus which may lead to progressive multifocal leukoencephalopathy (PML), a serious and often-fatal opportunistic brain infection. Approximately 56–58% of MS patients are positive for anti-JC virus antibodies, which puts them at increased risk for developing PML while on natalizumab[5]–[7]. The estimated incidence of PML in patients positive for anti-JC virus antibodies is 3.87 per 1,000 patients after at least 1 month of natalizumab treatment. It increases to 11.1 per 1,000 p ... || The standard dosing regimen for natalizumab is 300 mg by IV infusion every 4 weeks. […] It has been postulated that high serum concentrations may increase the risk of PML[10],[11]. […] Conversely, low drug concentrations have been associated with a lack of natalizumab efficacy. Multiple enzyme-linked immunosorbent assays (ELISAs) to detect levels of circulating natal ..."}}, "note": "Like-named read-outs stand apart in the source and are kept apart here.", "data": [{"molecule": "B1", "values": [{"measurement": "reduction of sustained physical disability relative to placebo", "setting": "MS patients [1]", "result": 42, "unit": "%"}, {"measurement": "binding with increased heat exposure by Ntz-01 peptide ELISA", "setting": "[2]", "result": "Decreased binding"}, {"measurement": "functional cell binding with increased heat exposure", "setting": "CD49d+ JeKo-1 cells", "result": "Decreased cell binding"}, {"measurement": "changes in binding with heat exposure by anti-Id ELISA", "setting": "[3]", "result": "Changes in binding with heat exposure were not observed"}, {"measurement": "variation of serum natalizumab concentrations", "setting": "[4]", "result": "over 100 fold"}, {"measurement": "estimated incidence of PML", "setting": "MS patients [5]; JC virus antibody positive patients with prior use of immunosuppressants and long-term use of natalizumab (24–48 months)", "result": "11.1 per 1,000 patients"}, {"measurement": "decrease of PML risk", "setting": "MS patients [5]; extended interval dosing (infusion every 5–12 weeks instead of every 4 weeks)", "result": 94, "unit": "%"}, {"measurement": "estimated incidence of PML", "setting": "MS patients [5]; patients positive for anti-JC virus antibodies, after at least 1 month of natalizumab treatment", "result": "3.87 per 1,000 patients"}]}]}
